In US20150307603A1 (MODIQUEST B V, published 2015):
Non-standard residues stand in square brackets, D forms with d. No end group written: not given here. Cit = NC(=O)NCCC[C@H](N)C(=O)O

Columns and labels:
CFC-1 [1] = biological target: T1, CFC-1; assay: ELISA, Ab 2 ug/well
T1 construct: Positive control for anti-citrulline reactivity; also called cfc1 XG; Cfc1-peptide
Text: (§1) The resulting OD (y-axis) is a measure for antibody binding. H1-recombinant histone 1; H1/p2-huPAD2 recombinant histone 1; H1/p4-huPAD4 recombinant histone 1, and so forth (x-axis).

[2] = biological target: T2, huPAD2-deiminated human recombinant histone 2B (human); assay: ELISA, Ab 2 ug/well
T2 construct: also called H2B/p2
Text: as §1

[3] = biological target: T3, huPAD2-deiminated human recombinant histone 3 (human); assay: ELISA, Ab 2 ug/well
T3 construct: also called H3/p2; histone 3/p2
Text: as §1

[4] = biological target: T4, huPAD4-deiminated human recombinant histone 3 (human); assay: ELISA, Ab 2 ug/well
T4 construct: also called H3/p4
Text: as §1

[5] = biological target: T5, huPAD2-deiminated human recombinant histone 2A (human); assay: ELISA, Ab 2 ug/well
T5 construct: also called H2A/p2; histone 2A/p2
Text: as §1

[6] = biological target: T6, human recombinant histone 2B (human); assay: ELISA, Ab 2 ug/well
T6 construct: Non-deiminated; also called H2B
Text: as §1

[7] = biological target: T7, human recombinant histone 4 (human, UniProt P62805 2-103); assay: ELISA, Ab 2 ug/well
Text: as §1

[8] = biological target: T8, human recombinant histone 2A (human); assay: ELISA, Ab 2 ug/well
T8 construct: Non-deiminated; also called H2A
Text: as §1

[9] = biological target: T9, huPAD4-deiminated human recombinant histone 2A (human); assay: ELISA, Ab 2 ug/well
T9 construct: also called H2A/p4; histone 2A/p4
Text: as §1

[10] = biological target: T10, huPAD4-deiminated human recombinant histone 2B (human); assay: ELISA, Ab 2 ug/well
T10 construct: also called H2B/p4
Text: as §1

CFC-1 [11] = biological target: T1, CFC-1; assay: ELISA, Ab 0.00064 ug/well
Text: as §1

[12] = biological target: T2, huPAD2-deiminated human recombinant …; assay: ELISA, Ab 0.00064 ug/well
Text: as §1

[13] = biological target: T5, huPAD2-deiminated human recombinant …; assay: ELISA, Ab 0.00064 ug/well
Text: as §1

[14] = biological target: T6, human recombinant histone 2B; assay: ELISA, Ab 0.00064 ug/well
Text: as §1

[15] = biological target: T7, human recombinant histone 4; assay: ELISA, Ab 0.00064 ug/well
Text: as §1

[16] = biological target: T8, human recombinant histone 2A; assay: ELISA, Ab 0.00064 ug/well
Text: as §1

[17] = biological target: T9, huPAD4-deiminated human recombinant …; assay: ELISA, Ab 0.00064 ug/well
Text: as §1

[18] = biological target: T10, huPAD4-deiminated human recombinant …; assay: ELISA, Ab 0.00064 ug/well
Text: as §1

[19] = biological target: T2, huPAD2-deiminated human recombinant …; assay: ELISA, Ab 10 ug/well
Text: as §1

[20] = biological target: T6, human recombinant histone 2B; assay: ELISA, Ab 10 ug/well
Text: as §1

[21] = biological target: T7, human recombinant histone 4; assay: ELISA, Ab 10 ug/well
Text: as §1

[22] = biological target: T8, human recombinant histone 2A; assay: ELISA, Ab 10 ug/well
Text: as §1

[23] = biological target: T9, huPAD4-deiminated human recombinant …; assay: ELISA, Ab 10 ug/well
Text: as §1

CFC-1 [24] = biological target: T1, CFC-1; assay: ELISA, Ab 2 ug/well; remark: listed apart in the source
Experimental: (§2) Biotin and citrulline-containing peptides derived from fibrinogen and vimentin were immobilized on NEUTRAVIDIN®-coated 96-well ELISA plates (0.3 μg/well). CFC-1 and CFC-0 were coated at the same concentration and served as positive and negative controls, respectively, for specific anti-citrulline reactivity and as coating controls. Non-coated wells were used to test for aspecific binding of the antibodies. […] Detection of bound anti-citrulline antibodies was performed by incubating the wells with rabbit anti-human HRP (1:2000) for 1 hour at RT followed by incubation with TMB substrate. The resulting OD (y-axis) is a measure for antibody binding.
(§3) Biotin-labeled and citrulline-containing fibrinogen and vimentin peptides (Table 5) were also tested for reactivity with the therapeutic antibodies. Peptides were coated on 96-well NEUTRAVIDIN®-ELISA plates.

msVim XS/XL [25] = biological target: T11, msVim XS/XL (mouse, also: biotin-labelled); assay: ELISA, Ab 2 ug/well
T11 construct: also called mouse vimentin peptide
T11 peptide: YVT[Cit]SSAV[Cit]L[Cit]SSVP
Experimental: as §2, §3

msFibβ XG = biological target: T12, msFibβ XG (mouse, also: biotin-labelled); assay: ELISA, Ab 2 ug/well
T12 construct: also called mouse fibrinogen β peptide
T12 peptide: EPTDSLDA[Cit]GHRPVDRR
Experimental: as §2, §3

msFibα XH [26] = biological target: T13, msFibα XH (mouse, X at position 15 = citrulline; biotin-labelled); assay: ELISA, Ab 2 ug/well
T13 peptide: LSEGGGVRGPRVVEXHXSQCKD
Experimental: as §2, §3

huFibα XH = biological target: T14, huFibα XH (human, X at position 15 = citrulline; biotin-labelled); assay: ELISA, Ab 2 ug/well
T14 peptide: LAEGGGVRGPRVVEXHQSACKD
Experimental: as §2, §3

msFibα XG [27] = biological target: T15, msFibα XG (mouse, X at position 8 = citrulline; biotin-labelled); assay: ELISA, Ab 2 ug/well
T15 peptide: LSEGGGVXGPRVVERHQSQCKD
Experimental: as §2, §3

huFibα XG [28] = biological target: T16, huFibα XG (human, X at position 8 = citrulline; biotin-labelled); assay: ELISA, Ab 2 ug/well
T16 peptide: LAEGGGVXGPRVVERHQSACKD
Experimental: as §2, §3

msVim XS/XL [29] = biological target: T11, msVim XS/XL; assay: ELISA, Ab 0.000128 ug/well
Experimental: as §2, §3

msFibα XH [30] = biological target: T13, msFibα XH; assay: ELISA, Ab 0.000128 ug/well
Experimental: as §2, §3

msFibα XG [31] = biological target: T15, msFibα XG; assay: ELISA, Ab 0.000128 ug/well
Experimental: as §2, §3

huFibα XG [32] = biological target: T16, huFibα XG; assay: ELISA, Ab 0.000128 ug/well
Experimental: as §2, §3

B1: RhmAb2.102 (antibody, human IgG1, lambda)
heavy: not shown
light: QSVLTQPPSMSAAPGQKVTISCSGSSSNIGNNYVSWYQQVPGTAPKLLIYDDNKRPSGIPGRFSGSKSATSATLGITGLQAGDEADYYCGSWDDNLSVVLFGGGTKLTVLGQPKAAPSVTLFPPSSEELQANKATLVCLISDFYPGAVTVAWKADSSPVKAGVETTTPSKQSNNKYAASSYLSLTPEQWKSHRSYSCQVTHEGSTVEKTVAPTECS
notes: Human IgG1 lambda; also called Rhm2.102
What does the source list for B1?
OD (CFC-1 [1]): 3.38 OD450; OD [2]: 0.086 OD450; OD [3]: 1.94 OD450; OD [4]: 0.439 OD450; OD [5]: 3.18 OD450; OD [6]: 0.076 OD450; OD [7]: 0.208 OD450; OD [8]: 0.115 OD450; OD [9]: 3.13 OD450; OD [10]: 0.069 OD450; OD (CFC-1 [11]): 0.077 OD450; OD [12]: 0.052 OD450; OD [13]: 0.077 OD450; OD [14]: 0.052 OD450; OD [15]: 0.06 OD450; OD [16]: 0.057 OD450; OD [17]: 0.075 OD450; OD [18]: 0.055 OD450; OD [19]: 0.31 OD450; OD [20]: 0.247 OD450; OD [21]: 0.825 OD450; OD [22]: 0.428 OD450; OD [23]: 3.42 OD450; OD (CFC-1 [24]): 3.97 OD450; OD (msVim XS/XL [25]): 2.77 OD450; OD (msFibβ XG): 3.15 OD450; OD (msFibα XH [26]): 0.091 OD450; OD (huFibα XH): 0.116 OD450; OD (msFibα XG [27]): 1.9 OD450; OD (huFibα XG [28]): 1.51 OD450; OD (msVim XS/XL [29]): 0.133 OD450; OD (msFibα XH [30]): 0.089 OD450; OD (msFibα XG [31]): 0.119 OD450; OD (huFibα XG [32]): 0.115 OD450
